Reference: US20210223235A1

Molecular target: QTARK^MeSTGC (SEQ ID NO: 4), methylated H3K9 peptide ligand immobilized on the monolayer
Assay: cell-based or functional assay

## Cbx1 fusion protein (Cbx1 chromodomain fused to KDAC8 through a short linker) (from UniProt P83916 20-73; Q9BY41 1-377)
  rate acceleration for the deacetylation reaction (SAMDI mass spectrometry): 20 fold
